In article PMC7717579, “Phosphoregulation of HORMA domain protein HIM-3 promotes asymmetric synaptonemal complex disassembly in meiotic prophase in Caenorhabditis elegans” (PLoS Genetics, 2020):
Non-standard residues stand in square brackets, D forms with d. No end group written: not given here. pY = N[C@@H](Cc1ccc(OP(=O)(O)O)cc1)C(=O)O

Target: T1, HTP-2 protein (full length) (C. elegans)
T1 construct: HTP-2, HORMA domain protein of the meiotic chromosome axis, C. elegans, full length; also called HTP-2 proteins
Assay: fluorescence polarisation; 50 nM FITC peptide with various concentrations of HTP-2; 20 mM Tris pH 7.5, 300 mM NaCl, 10% glycerol, 1 mM DTT, 0.1% NP-40; 1 hour at room temperature; 384-well plates; single-site binding model
Details: both partners purified

Row | Binder | Kd [µM]
1 | RDSPYGLAQGITKKNKD (also: fluorescein (FITC) conjugated, site not given here) [HIM-3 closure motif peptide with the S282A substitution, fluorescein-tagged] | 11.3
2 | RDSPYGLSQGITKKNKD (also: fluorescein (FITC) conjugated, site not given here) [HIM-3 closure motif peptide, unmodified (wild type), fluorescein-tagged] | 5.8
3 | RDSP[pY]GLSQGITKKNKD (also: fluorescein (FITC) conjugated, site not given here) [HIM-3 closure motif peptide phosphorylated at Tyr279, fluorescein-tagged] | 16.1
